Biological target: actin filament, unlabelled segment of recombinant cytoplasmic β-actin (UniProt P60709)
Experiment: TIRF microscopy of single actin filaments under flow in a microfluidic chamber

| Substance | cluster detachment, fold slower than sfGFP-Tpm1.6 | cluster detachment, fold faster at 50 mM KCl than at 100 mM KCl | fold decrease of the median detachment time from 0.01 to 0.04 pN per Tpm dimer |
| --- | --- | --- | --- |
| sfGFP-Tpm1.7 (natural protein) | 5.5 fold |  |  |
| sfGFP-Tpm1.6 (natural protein) |  | 36 fold | > 100 fold |
